From the DeepSol protein solubility set

assay: soluble on expression in E. coli; label from the status in PepcDB or PDB records

Sequence | soluble on expression in E. coli
MAHHHHHHMMLKVRYENFNDLRNDDEMLNISFVAHPCYYSILDLEESELFNKIVYENFCKVAEKVDIYDKNEYLSVYRRHDKKCRELHMLKSWELLKNTYRYKMPVIFKNLKDFDLYNMEKIPFYSINYNKKKKGTKENGFVVRNKKKINIIDKGKCFILDNHMIYSMTPEYIANNISKNILLNTHHIMKGNNILSLKEDDKYVKHQKVNDNPYYFKLRYHYNDDDIYCKDNYSYKRKGISPIKKKRKIEPILYNNKKMDYEEKKRILIYLDPFAGAGGNCNHMNNIFTIGCDINFYRIKQCQHNCNFYNKNVDFILCDFFNLVTHFRKGTIDVIFFSIPWGGPKYKNKKNFELNTEIMDNISIYKCIEVSVELTENLVFYLPRNVCMKELYYLYGYYKELVKNKKCVNYENDDIYKYDRKGEGGKKKKKKKKKKILS | not soluble
SLLSIIPISAGIPLTETEPKQKWLEEWSKQLFVKVSIDSEYGWGEVLPAAFNSPALYADIVKRLEPSLNGMEISEPGIIWEKLRKLTFSGGYGPVIGAISGVDIALWDLKAKLSKLYLGDIFGKNEQKIARYASLSRYANYEAVIRASKNIVESGFKAIKLHQTKDDTLESVKRFREEIGYGVDLMVDLNCAMNIDEAIKFANSVQRYELKWVEEPIWPPDDLASLKKINDIVPVAAGENFFDFFKFEDAVHLEALTYYQPDVTKVGGLTPTLKILDLLKKNHEQVAFHNRPHNGWIGIFASIAAARMNGVDALIETPPNGVPSQYFRYNAMITSEVIAPNGVGLSIEPIEPLPQPKDEKILIFHD | soluble
MSGQNNVVGVHYKVGRRIGEGSFGVIFEGTNLLNNQQVAIKFEPRRSDAPQLRDEYRTYKLLAGCTGIPNVYYFGQEGLHNVLVIDLLGPSLEDLLDLCGRKFSVKTVAMAAKQMLARVQSIHEKSLVYRDIKPDNFLIGRPNSKNANMIYVVDFGMVKFYRDPVTKQHIPYREKKNLSGTARYMSINTHLGREQSRRDDLEALGHVFMYFLRGSLPWQGLKAATNKQKYERIGEKKQSTPLRELCAGFPEEFYKYMHYARNLAFDATPDYDYLQGLFSKVLERLNTTEDENFDWNLL | soluble
MGSDKIHHHHHHMDIDRTILVQIQGLLVFESPLHHDERGYFLENWRKKDLLANGVPESFFHHKLQNNVSVSKQGVIRGMHCQGYEKLMTVAYGTFKMIFIDLRIDSPTYKSVDVIDVQPGRAVFVPGGVANGAQSLVNNGILNYLVADYYDPHKNYLGITPLDKDANLSWDSLLKPIISEKDQAAKSFKEVLEIIESSKKKVALIGSTGAVGKVLFDTLRKQSDIDLSCFNRNNIEEALKDFYDMVICTAPSSEKLLTNLSLKNDDAEIEKLVNVLKNIQTGHMILVSTKSVFDSGARYSAIHQKIYNSVIEAHQNSNTIYIMDTLYGKTLKKGFINDLLSRQWTYISNDIVLDKPELENYYQKVNDQLWSLVEPLPNELLSTLEPISDIYPDEMCYQVTAINDLVSHLMANLNRIDGVKLGIDKSEIFTGRQIKNLLKNPDNSTLGRYFKKQEGDFNLENL | not soluble
MGNKICQFKLVLLGESAVGKSSLVLRFVKGQFHEFQESTIGAAFLTQTVCLDDTTVKFEIWDTAGQERYHSLAPMYYRGAQAAIVVYDITNEESFARAKNWVKELQRQASPNIVIALSGNKADLANKRAVDFQEAQSYADDNSLLFMETSAKTSMNVNEIFMAIAKKLPKN | soluble
MGHHHHHHSHPAPAQLVQKAHELMWYVLVKDQKKMIIWFPDMVKDVIGSYKKWCRSILRRTSLILARVFGLHLRLTSLHTMEFALVKALEPEELDRVALSNRMPMTGLLLMILSLIYVKGRGARESAVWNVLRILGLRPWKKHSTFGDVRKLITEEFVQMNYLKYQRVPYVEPPEYEFFWGSRASREITKMQIMEFLARVFKKDPQA | not soluble
MAHHHHHHMSPYEYLFKYIIIGDTGVGKSCLLLQFTDKRFRADHDLTIGVEFGARLINLDNKQIKLQIWDTAGQESFRSITRSYYRGAAGALLVYDITRRETFNHLNRWLDEVRQNSNPHMAIILVGNKCDLERREVSAEEGAQFARQNGLIFLETSAKTAKNVEEAFLYTARKIYDNILEDVYDLSNESYGIKYGPNSQYSRVKLDIPSMPESRSGFSCC | soluble
MLASFLKLKTYCEQEGFKGWDPYDGLNSKVFRALPLLKQSALCRLIVIQGFKRSPINLRRLALVPKEYNAKGIGLFLQGYCNLYRLVERNPQLTKELGSREELLEQVKKLADLLLELRSPGDYSGACWGYNFDWQARRLFLFPKYTPTVVATNFCATALMEAYEVTRQQEYLDVALSAAQFVIKDLHRTAYRDGFLFSYSPLDGNDTVFNASLLGARLLSYCYHYTKDEAYRTLARQTISACCAAQAEDGSWVYGMLPVQSWIDSFHTGYNLDALIAYQELTGDISFAENIERGLSYYLEHFFEADGMPKYYHDRTYPIDIHCPGQLFVSLARLHRYDEHRELVDRVMAWTISSMQDKKGYFYYQMKPGLSSKIPYMRWSNAFMFCAMSYYLINYKEISGGDFSNDQ | not soluble
MEPPSPVGNPEIPSEIPKNAEKTVYKYIDEQGIEIFIEDPIYVEENGNTMVYGNPYDPTTSSQEIYEEEIVDEEYIFQVDSLPSTSSSSAAAPPPSKRARLIKDGVAYPSNTVLLTNQSLEAKNATFLAKAGARREEKEPKKQIPMINKHGSILNRNLPGMTNMFKVMAESALAKTDEMIKQEAMNNTVEEVEKGRKLDNSSRFGLENEESDQDGQSDTPPPMERLGEADDFQPTTTTFDQWPLYSNRAIDFKGFSTYQKKNYFENWKILSSFKKVFSKNFQFLAKILKFISMRDPHRNSRNRRGKNIPSGKTRFYTETADGNLIRADDGKGRLKQWTKEFTYKIILKKYDNQVTRGGDEGRGQFQRKIYTGFKGAGRLPFSIVTYSWHAGRPWNFVPPVTSRQTVRRPNWEKKSYEKVNMTSMPQMVSAYYEGFNIYSHCIVSFDEATAIMLGATPIDTNKLVIIIVAGPKISRNFPIFRLCSSVPLGYRQNGTFVIDLKRMGHCLLELRRDDNGIWNKPSGFSRFYKISENGDAIRVDKAGKLPAGMDYDVKIASKRYEHTQVQKNFVRKIYTAKGKNSESFPGSPEYAVIVYYWKGEPIQFEPAFKQNGVRTESKEYSRYQQIADEEQEFVEATGSMDPVVENLQKNLAPSPPPLLKRVTFPPEPQQSTSSTSAENLHELKLQLIRREMQNQDRFSAVLDRADGLLARMEQRFGVEHHHHIVHQEQEEEVWDHEQIIEEEEVIVQDTMEY | not soluble
MGHHHHHHSHLRYMKESQVLLTLTNPVENLTHVTLFECEEGDPDDINSTAKVVVPPKELVLAGKDAAAEYDELAEPQDFQDDPDIIAFRKANKVGIFIKVTPQREEGEVTVCFKMKHDFKNLAAPIRPIEESDQGTEVIWLTQHVELSLGPLLP | soluble
GSHMSLFDFFKNKGSAATATDRLKLILAKERTLNLPYMEEMRKEIIAVIQKYTKSSDIHFKTLDSNQSVETIEVEIILPR | soluble
MNAQIKIINTANGYMALCQDTPEDITPAWFSVDFWREKSAVVGSSKGRYTTWFVAFEHSHWVLRHYWRGGMMEKFSKDAYFYTGLENTRAMGELRLLDALYREQFAVPKPIAANIVRDGLFYRADIIIERVDGAEDLVAKLTKGTMTQAQWHALGATIAQFHRRGVYHADLNAKNILWQPQQTDSAQERFYLIDFDRGELKTPNAKWQKANLDRLLRSFNKEQGKQPTLAFTPANWAALLEGYHAVVPKVAAALEHHHHHH | soluble
MGSDKIHHHHHHMKTVRIETFGCKVNQYESEYMAEQLEKAGYVVLPDGNAAYYIVNSCAVTKEVEKKVKRLIKSIRNRNKNAKIILTGCFAQLSPDEAKNLPVDMVLGIDEKKHIVDHINSLNGKQQVVVSEPGRPVYEKVKGSFEDRTRSYIKVEDGCDNTCTYCAIRLARGTRIRSKPLEIFKEEFAEMVMKGYKEIVITGVNLGKYGKDMGSSLAELLKVIEKVPGDYRVRLSSINVEDVNDEIVKAFKRNPRLCPHLHISVQSGSDDVLKRMGRKYKISDFMRVVDKLRSIDPDFSITTDIIVGFPGETDADFQRTLELVEKVEFSRVHIFRFSPRPGTPASRMEGGVPESKKKERLDVLKEKAKDVSIRYRKRIIGKERKVLAEWYVMKGVLSGYDEYYVKHEFVGNRVGEFHSVRVKSLSEEGVISCRADMVEGKVPARG | not soluble
